This note sets out measurements from PMC8203652, “Facile fabrication of antibacterial and antiviral perhydrolase-polydopamine composite coatings” (Scientific Reports, 2021).

Substrate in the data set: CC(=O)OCC(C)OC(C)=O
In words: purified protein. Type of data set: biochemical, Mycolicibacterium smegmatis. To be noted: free enzyme; 200 mM H2O2 constant, PGD 3-100 mM, PBS; apparent (two-substrate reaction).

B1: AcT (perhydrolase S54V) (Mycolicibacterium smegmatis MC2 155; S54V) (protein)
chain: MAKRILCFGDSLTWGWVPVEDGAPTERFAPDVRWTGVLAQQLGADFEVIEEGLVARTTNIDDPTDPRLNGASYLPSCLATHLPLDLVIIMLGTNDTKAYFRRTPLDIALGMSVLVTQVLTSAGGVGTTYPAPKVLVVSPPPLAPMPHPWFQLIFEGGEQKTTELARVYSALASFMKVPFFDAGSVISTDGVDGIHFTEANNRDLGVALAEQVRSLL
notes: synthetic gene in pET28a, N-terminal His8 tag and thrombin site (LVPRGS), expressed in E. coli BL21(DE3), Ni-NTA purified; MW 180 kDa printed; S54V printed in the introduction only
As to B1, the Km amounted to 13 mM and the kcat is 4700 s⁻¹.

As a reminder, the Km is the substrate concentration at which the rate is half of its maximum. For orientation: kcat means the number of substrate molecules converted per active site and unit of time at saturation.
